To fix the notation:
B1: Bifunctional UDP-N-acetylglucosamine 2-epimerase/N-acetylmannosamine kinase (Homo sapiens), Q9Y223 (parent)
chain: MEKNGNNRKLRVCVATCNRADYSKLAPIMFGIKTEPEFFELDVVVLGSHLIDDYGNTYRMIEQDDFDINTRLHTIVRGEDEAAMVESVGLALVKLPDVLNRLKPDIMIVHGDRFDALALATSAALMNIRILHIEGGEVSGTIDDSIRHAITKLAHYHVCCTRSAEQHLISMCEDHDRILLAGCPSYDKLLSAKNKDYMSIIRMWLGDDVKSKDYIVALQHPVTTDIKHSIKMFELTLDALISFNKRTLVLFPNIDAGSKEMVRVMRKKGIEHHPNFRAVKHVPFDQFIQLVAHAGCMIGNSSCGVREVGAFGTPVINLGTRQIGRETGENVLHVRDADTQDKILQALHLQFGKQYPCSKIYGDGNAVPRILKFLKSIDLQEPLQKKFCFPPVKENISQDIDHILETLSALAVDLGGTNLRVAIVSMKGEIVKKYTQFNPKTYEERINLILQMCVEAAAEAVKLNCRILGVGISTGGRVNPREGIVLHSTKLIQEWNSVDLRTPLSDTLHLPVWVDNDGNCAALAERKFGQGKGLENFVTLITGTGIGGGIIHQHELIHGSSFCAAELGHLVVSLDGPDCSCGSHGCIEAYASGMALQREAKKLHDEDLLLVEGMSVPKDEAVGALHLIQAAKLGNAKAQSILRTAGTALGLGVVNILHTMNPSLVILSGVLASHYIHIVKDVIRQQALSSVQDVDVVVSDLVDPALLGAASMVLDYTTRRIY

The source of these data is IntAct's records for PubMed 18560563.

This test covers variants of B1. The conditions noted are these: with actn1_human ACTN1, P12814.
Sequence of actn1_human ACTN1, P12814 (P12814 whole entry): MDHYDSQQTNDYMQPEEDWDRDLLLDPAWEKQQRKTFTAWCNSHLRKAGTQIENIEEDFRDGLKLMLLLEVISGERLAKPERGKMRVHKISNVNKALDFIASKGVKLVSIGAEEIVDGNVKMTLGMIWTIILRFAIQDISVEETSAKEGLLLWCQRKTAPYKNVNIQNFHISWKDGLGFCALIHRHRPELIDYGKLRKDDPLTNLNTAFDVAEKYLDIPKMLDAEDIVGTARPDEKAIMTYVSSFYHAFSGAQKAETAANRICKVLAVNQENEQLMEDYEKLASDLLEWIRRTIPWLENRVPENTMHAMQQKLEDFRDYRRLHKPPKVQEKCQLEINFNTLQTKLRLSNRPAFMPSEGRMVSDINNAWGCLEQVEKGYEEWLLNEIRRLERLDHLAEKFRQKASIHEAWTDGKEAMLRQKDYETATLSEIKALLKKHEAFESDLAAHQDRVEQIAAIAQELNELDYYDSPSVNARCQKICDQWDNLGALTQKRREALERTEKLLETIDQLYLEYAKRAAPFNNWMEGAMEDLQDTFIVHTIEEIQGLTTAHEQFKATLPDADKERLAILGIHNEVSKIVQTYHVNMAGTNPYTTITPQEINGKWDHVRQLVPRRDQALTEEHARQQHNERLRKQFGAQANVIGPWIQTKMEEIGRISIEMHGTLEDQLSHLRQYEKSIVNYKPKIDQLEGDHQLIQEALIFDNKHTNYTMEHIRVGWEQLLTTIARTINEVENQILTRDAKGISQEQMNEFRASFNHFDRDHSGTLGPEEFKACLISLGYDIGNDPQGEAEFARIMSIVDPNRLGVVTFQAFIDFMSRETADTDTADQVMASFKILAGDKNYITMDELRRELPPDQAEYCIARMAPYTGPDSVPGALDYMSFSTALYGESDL
In the case of M712T, the “effect of a mutation on the interaction” value is “with no effect”.
